In the DeepSol protein solubility set:

Assay: soluble on expression in E. coli; label from the status in PepcDB or PDB records

Sequence | soluble on expression in E. coli
MDSGRLAVIALGGNAIAGPGMDVSVESQTAAVKRASSIIADVLADGWRSVITHGNGPQVGYLSEAFEALPPERPRQPLYIATAMTQAWIGLLLKHSLEEELRRRGLNVLVPVVISRVLVDVSDPSFNNPSKPVGPIYGREEAEELSRRYGWVFKRDPRGGFRRVVPSPRPVSIVDRDLIAEASAESPAVVALGGGGVPVVERPGGVLEPVEAVVDKDLASSLLATQLNADLLVILTDVPGVAVNYGREGERWLRRAAASELKKYLREGHFPPGSMGPKVEAAISFVERTGKPAVIGSLEEARQVLSLQAGTVVMLG | soluble
MAPQMEKVSEELILPSSPTPQSLKCYKISHLDQLLLTCHIPFILFYPNPLDSNLDPAQTSQHLKQSLSKVLTHFYPLAGRINVNSSVDCNDSGVPFVEARVQAQLSQAIQNVVELEKLDQYLPSAAYPGGKIEVNEDVPLAVKISFFECGGTAIGVNLSHKIADVLSLATFLNAWTATCRGETEIVLPNFDLAARHFPPVDNTPSPELVPDENVVMKRFVFDKEKIGALRAQASSASEEKNFSRVQLVVAYIWKHVIDVTRAKYGAKNKFVVVQAVNLRSRMNPPLPHYAMGNIATLLFAAVDAEWDKDFPDLIGPLRTSLEKTEDDHNHELLKGMTCLYELEPQELLSFTSWCRLGFYDLDFGWGKPLSACTTTFPKRNAALLMDTRSGDGVEAWLPMAEDEMAMLPVELLSLVDSDFSK | soluble
MEALRLGFSPCPNDTFIFYALVHGRVESPVPLEPVLEDVETLNRWALEGRLPLTKLSYAAYAQVRDRYVALRSGGALGRGVGPLVVARGPLQALEGLRVAVPGRHTTAYFLLSLYAQGFVPVEVRYDRILPMVAQGEVEAGLIIHESRFTYPRYGLVQVVDLGAWWEERTGLPLPLGAILARRDLGEGLIRALDEAVRRSVAYALAHPEEALDYMRAHAQELSDEVIWAHVHTYVNAFSLDVGEEGERAVARLFAEAEARGLAAPSPRPLFV | soluble
MAWGQIAVVSPLVNIPVNTIEQSLLRQLPGCWGCKDKDSVFRYVNQEYAELLGHASPEECIGKTDFEMSSPTTECAQEFQRQDKHVIETGESLKILDIHPYPDGRWRAHIFTKTPWRDEQGNTLGTIFYGRELTDTAVIEVGYWVCRAIGTDMNHQSIFRFSNLNPKPEKLTCREQETLFLLLYGKKPQFISQVMGISTKTVEGHVARLRNKFEANSKNELIDKAMEAGYGSVVPKTLLKHQLSVVLNGER | not soluble
MGVYDYKNFGTADSKALFSDAMAITLYSYHNLDNGFAAGYQHNGFGLGLPATLVTALLGGTDSQGVIPGIPWNPDSEKLALDAVKKAGWTPITASQLGYDGKTDARGTFFGEKAGYTTAQVEILGKYDAQGHLTEIGIAFRGTSGPRENLILDSIGDVINDLLAAFGPKDYAKNYVGEAFGNLLNDVVAFAKANGLSGKDVLVSGHSLGGLAVNSMADLSGGKWGGFFADSNYIAYASPTQSSTDKVLNVGYENDPVFRALDGSTFTGASVGVHDAPKESATDNIVSFNDHYASTAWNLLPFSILNIPTWISHLPTAYGDGMNRIIESKFYDLTSKDSTIIVANLSDPARANTWVQDLNRNAETHKGSTFIIGSDSNDLIQGGSGNDYLEGRAGNDTFRDGGGYNVILGGAGNNTLDLQKSVNTFDFANDGAGNLYVRDANGGISITRDIGSIVTKEPGFLWGLFKDDVTHSVTASGLKVGSNVTQYDASVKGTNGADTLKAHAGGDWLFGLDGNDHLIGGVGNDVFVGGAGNDLMESGGGADTFLFNGAFGQDRVVGFTSNDKLVFLGVQGVLPNDDFRAHASMVGQDTVLKFGGDSVTLVGVALNSLSADGIVIA | soluble
MSLAETVLEKARAKNEIRIATSDSLKPWGYMDDTNKPIGFNLDVSREMGKRMGFGKVTFVTDSYKNFISGLNADRYDMVVAILTPTEERRKSADFSNPYMVVSKNIFVRDDNTSIRSLEDLAGKRLGVAAGTTDEAWARQHVKDAQIRVYDNFFLALQDLAIGRVDARITDRVTGMTAAKEGRFPVKIAGPDLSQDIGAIAYKKGQDDLAAIVNKVIQEMVDDGSLNEISRKWLAGIEMGEELKKLPKDAREGHHHHHH | soluble
MGSDKIHHHHHHMKISNISYFNFRNLENTSIDLSDKINVFYGKNAQGKTSLLEAIYYSSTGISFKTKKTSEMIKYNFDEFISSISYQDYIANNKISVRFKNIAGAKKEFFFNKKRISQTDFYGKINIIAYIPEDIILINGSPKHRRDFFDIEISQIDKEYLTNLKNYDKLLKIRNKYLKENKRNSEEFAIYEKEFIKYASYIIFTRIEYVKSLSIILNLQYRKLFNIAQELNLRYETSLDKTAKVTIEMIQESLKREISQKKYQEDKYKFSLVGPHKDDYKFLLNGHEAKISASQGEKKSIIFSLKLSEIEIIKKNRKENPVVIIDDITSYFDEDRRKSILDFFNKRDIQVLISSTDKLDIEAKNFYVEKGIIKDESNINK | not soluble
ELGRLEDPAFTIKDAMIVATYPGATSKEVEEELTYPLEKEIRKLPYIDRITSTSSNGMSQIMVSMKMDYGPDELPQIWDEMRRKINDLQPTLPQGVQSLQIIDDFGDVYGVMLMLTGDDYDYVELKRYADHLRREIELVDGVGKVDIAGDQQEMLFVEISLDRLASLNLDMNVVSGLLNQQNNVVSAGEVMVNGESLVIRPSGTLNTVQALENLIIHGRDTGNLIRLKDVATITRGIQEKPGNMILFNGKKAINIGISFASGVNVVEVGERLNAELSSLESIKPAGLDMSYFYNQAQEVDDSVK | soluble
MMKKFIAPLLALLVSGCQIDPYTHAPTLTSTDWYDVGMEDAISGSAIKDDDAFSDSQADRGLYLKGYAEGQKKTCQTDFTYARGLSGKSFPASCNNVENASQLHEVWQKGADENASTIRLN | soluble
MEVEKEFITDEAKELLSKDKLIQQAYNEVKTSICSPIWPATSKTFTINNTEKNCNGVVPIKELCYTLLEDTYNWYREKPLDILKLEKKKGGPIDVYKEFIENSELKRVGMEFETGNISSAHRSMNKLLLGLKHGEIDLAIILMPIKQLAYYLTDRVTNFEELEPYFELTEGQPFIFIGFNAEAYNSNVPLIPKGSDGMSKRSIKKWKDKVENK | soluble
MSLENLQTNFSLVQGSTKKLNGMGDDGSPPAKKMITDIHVNGKTINKVPTVKKEHLDDYGEAPVETDGEHVKRTCTSVPETLHLNPSLKHTLAQFHLSSQSSLGGPAAFSARHSQESMSPTVFLPLPSPQVLPGPLLIPSDSSTELTQTVLEGESISCFQVGGEKRLCLPQVLNSVLREFTLQQINTVCDELYIYCSRCTSDQLHILKVLGILPFNAPSCGLITLTDAQRLCNALLRPREGHHHHHH | soluble
MASNQIEGAVVGIRVNDGIAAAPVVLFTHEMPAVPERDFQSEQGEIERVKRAIGVVVQHLQEQAKQPKGEIFSAHSMMLSDPELWASVESRIQTGMIAEQAWIESLQTLADEFRQAESQYMREREADVHDIARQVMVEMTGVTPNAIDIQEPSILLARDLMPSDVAGLDKSKVLGICLSEGGKTSHSAILARAMGIPAMVKAQGCLDAVRAGQVVTIDGFRGHLWFSPSDAIQQELEAQQIEWQSTRQSALASAQQA | not soluble
MPLEASELKPTAGPLEASELKPTAGPLEASELKPTAGPLEASELKPTAGPLEASELKPTAGPLEASELKPTAGPLEASELKPTAGMTDAFIFENKKAAFLTLGCKLNFAETSTIGKALAEQGVRPVREGEKADICVINTCSVTELADKKCRNAIRKLHKEHPGALMIVTGCYAQLKPEEIARIDGVDIVLGADEKLDLVSILSQRPIQGFAEQTILTTPTKDIRKFQPGCSADDRTRHFLKVQDGCDYHCSYCTIPKARGRSRNGSIESLVRQAEAVAAEGGKEIVLTGVNIGDFGRSTGETFLDLLRALDQVEGIERYRIGSIEPNLLSDELIDFCASAHRIAPHFHMPLQSGSDDVLKLMRRRYDTALFRERVEHIRRALPHAFIGIDVIVGTRGEKPEFFEDCYSFLQDKISFSRLHVFSYSERPGTQALQIPYKVDAREKQRRSRRLLDLSDLRLAEFYRSQEGTHRRVLWEDVCHEGLMQGFTENYIRVAAPYAADSVGKVEEIVLGKTDPSGEYVQTADTIFPLEHHHHHH | soluble
LQASVNLFPTISVAPSADTSSERSIYKARFLENVAAAETEKQVALAQGRAETLAGAMPNEAGGHPDARQLWDSPETAPAARTPQSPAPCVLLRAQRSLAPEPKEPLIPASPKAEPIWELPTRAPRLSIGDLDFSDLGEDEDQDMLNVESVEAGKDI | not soluble
MDASYSSSRPKKLNYTSYTSLKSVLKFLSVKKREQIHIHIPELRSVNALLPYAHEEVILDKFEIMIQNRSYLFKKLAEKAPKPEGVARRRPEYEYAEYNRLLVMDLGPPSLFDMNDLHHLWRPMGNQGPDRLSFGDLDSLEKRRLRFRRENRLQDSSEHGRTGNCEITISEEDGTAITVTKEIPVDIAYEKIFDAFFSNGSRIKLLKVQSFPDFLMRKDLLTLKVREIDCSSTASIDILELAPFLDHSSLKKLTLNVTNTNVDLLMLPLVQNCPVLRIVEAGTFLSRMLKTTLLSALQNQKLEIFPDIVIIESFPQLVQSWATSSRPIGSLVQVGIREDYKEVLDILDFLKESHGAHPAIIKKLENTDFSNGLSMLIDGDLELAIYGGGKISEEGLTRPQPCKWSLCMEVMKRGDTIPR | not soluble
MGHHHHHHHHHHSSGHIEGRHIGSGVEAPEQLEEHGISVYATIPMSEWLDKRTRLRKKNLFSNQQRHRTKNIPFLAVDNPADSAVEAVRALRTSLHFAMMETENNILMITGATPDSGKTFVSSTLAAVIAQSDQKVLFIDADLRRGYSHNLFTVSNEHGLSEYLAGKDELNKVIQHFGKGGFDVITRGQVPPNPSELLMRDRMRQLLEWANDHYDLVIVDTPPMLAVSDAAVVGRSVGTSLLVARFGLNTAKEVSLSMQRLEQAGVNIKGAILNGVIKRASTAYSYGYNYYGYSYSEKE | soluble
MIGSTSDGLVPGNTDMPATPTTALTALRTPHPPTGGESMHPRTRTAPALLFAVCLTALAAYPAAADDPVPTTERVSVTLDGAQIDDPSYRPQLTSKGGVVYTSDGPVWSTDHNGVSDAYRNSERVSYNMGAARSYDPSACHTARMIAFVSDRTPAGGTTPSVYVRNTPVGKLSYASHGYQGVPFTWAGQPAMSADCQWMAFSATLPATPDHVEQPRVYRYRIYDGTIEQVSPDSADGSRAAVRPSISADGRYVAYQSSIPHPGGPANDSDIYVRDLETGTLEKASVGRHGRPADRASTGPSLSADGRHVAFDSYASNLAPGDTNGTVNVFVRDLDAGTTRLVKGAGRHAYTAEAALSGDGLHLAYVSAGIRGSRGVPAVYLRDLATGRTRLISVDTRGHRNDRAAGNPSVNPDGTAVAFDSASPDLVPGDTNGTVDVFLRRLGSPEALEHHHHHH | soluble
MDWGRFVEEKVREIRETVGDSKAIIALSGGVDSSTAAVLAHKAIGDRLHAVFVNTGFLRKGEPEFVVKTFRDEFGMNLHYVDAQDRFFSALKGVTDPEEKRKIIGRVFIEVFEEVAKKIGAEYLIQGTIAPDWIESQGKIKSHHNVGGLPEKLNLKLIEPLRDLYKDEVRELAKFLGLPEKIYNRMPFPGPGLAVRVIGEVTPEKIRIVREANAIVEEEVERAGLRPWQAFAVLLGVKTVGVQGDIRAYKETIAVRIVESIDGMTANAMNVPWEVLQRIAFRITSEIPEVGRVLYDITNKPPATIEFE | soluble
MSNSHHTSMRGNDMSDNIRVGLIGYGYASKTFHAPLIAGTPGLELAVISSSDETKVKADWPTVTVVSEPKHLFNDPNIDLIVIPTPNDTHFPLAKAALEAGKHVVVDKPFTVTLSQARELDALAKSLGRVLSVFHNRRWDSDFLTLKGLLAEGVLGEVAYFESHFDRFRPQVRDRWREQGGPGSGIWYDLAPHLLDQAITLFGLPVSMTVDLAQLRPGAQSTDYFHAILSYPQRRVILHGTMLAAAESARYIVHGSRGSYVKYGLDPQEERLKNGERLPQEDWGYDMRDGVLTRVEGEERVEETLLTVPGNYPAYYAAIRDALNGDGENPVPASQAIQVMELIELGIESAKHRATLCLA | soluble
